Data as given in patent publication US6344321.

Biological target: HGF (hepatocyte growth factor/scatter factor) (UniProt P14210+P14210)
Experiment: filter
Conditions: 2'-F pyrimidines

HGF (hepatocyte growth factor/scatter factor), sequence (P14210 32-494, chain 1 of 2): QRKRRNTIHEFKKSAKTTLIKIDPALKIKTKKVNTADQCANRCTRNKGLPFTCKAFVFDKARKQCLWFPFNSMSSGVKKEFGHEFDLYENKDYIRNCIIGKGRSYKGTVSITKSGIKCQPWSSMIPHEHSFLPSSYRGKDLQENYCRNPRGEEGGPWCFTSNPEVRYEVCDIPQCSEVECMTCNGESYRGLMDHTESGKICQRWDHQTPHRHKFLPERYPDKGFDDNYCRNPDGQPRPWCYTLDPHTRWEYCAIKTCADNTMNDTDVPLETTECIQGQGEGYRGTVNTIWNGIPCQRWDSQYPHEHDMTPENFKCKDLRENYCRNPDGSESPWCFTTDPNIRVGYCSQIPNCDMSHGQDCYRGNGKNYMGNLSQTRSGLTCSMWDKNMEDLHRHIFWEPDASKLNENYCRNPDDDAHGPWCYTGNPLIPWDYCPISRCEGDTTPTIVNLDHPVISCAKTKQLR
HGF (hepatocyte growth factor/scatter factor), sequence (P14210 495-728, chain 2 of 2): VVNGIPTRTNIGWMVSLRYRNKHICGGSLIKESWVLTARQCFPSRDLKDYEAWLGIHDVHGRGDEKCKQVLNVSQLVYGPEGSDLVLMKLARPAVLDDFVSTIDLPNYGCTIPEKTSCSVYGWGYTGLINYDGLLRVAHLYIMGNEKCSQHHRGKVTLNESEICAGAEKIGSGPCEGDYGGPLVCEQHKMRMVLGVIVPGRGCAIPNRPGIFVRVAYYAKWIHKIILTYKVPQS

Sequence: GGAGAGNUCCUAUUUAUGACAUCCCAUGCCCCCA [Tr65]
- Kd (one or two 5' G, one N in printed sequence): 1.4 nM

Sequence: GGGAGGACGAUGCGGNNNNNNNNNNNNNNNNNNNNNNNNNNNNNNCAGACGACUCGCCCGA [random 30N7 pool]
- Kd (random pool, 550 nM with competitor tRNA): 1.6 nM
